{"source": "paper PMC10215022", "about": "(mAbs, 2023)", "biological_target": "SARS-CoV-2 Delta (B.1.617.2) spike protein RBD, His-tagged (SARS-CoV-2 Delta (B.1.617.2), UniProt P0DTC2)", "assay": "SPR", "data": [{"binder": "imdevimab (REGN10987) (antibody, V domains shown) VH: QVQLVESGGGVVQPGRSLRLSCAASGFTFSNYAMYWVRQAPGKGLEWVAVISYDGSNKYYADSVKGRFTISRDNSKNTLYLQMNSLRTEDTAVYYCASGSDYGDYLLVYWGQGTLVTVSS VL: QSALTQPASVSGSPGQSITISCTGTSSDVGGYNYVSWYQQHPGKAPKLMIYDVSKRPSGVSNRFSGSKSGNTASLTISGLQSEDEADYYCNSLTSISTWVFGGGTKLTVL", "values": [{"measurement": "Kd", "result": 0.11, "unit": "nM"}, {"measurement": "koff", "result": 0.00028, "unit": "s⁻¹"}, {"measurement": "kon", "result": "2.6e+06", "unit": "M⁻¹ s⁻¹"}]}, {"binder": "casirivimab (REGN10933) (antibody, V domains shown) VH: QVQLVESGGGLVKPGGSLRLSCAASGFTFSDYYMSWIRQAPGKGLEWVSYITYSGSTIYYADSVKGRFTISRDNAKSSLYLQMNSLRAEDTAVYYCARDRGTTMVPFDYWGQGTLVTVSS VL: DIQMTQSPSSLSASVGDRVTITCQASQDITNYLNWYQQKPGKAPKLLIYAASNLETGVPSRFSGSGSGTDFTFTISGLQPEDIATYYCQQYDNLPLTFGGGTKVEIK", "values": [{"measurement": "Kd", "result": 0.07, "unit": "nM"}, {"measurement": "koff", "result": 0.0002, "unit": "s⁻¹"}, {"measurement": "kon", "result": "2.9e+06", "unit": "M⁻¹ s⁻¹"}]}]}
